Data reported in patent publication US20230391872A1 (ANAPTYSBIO, published 2023).
Values belong to the molecule of their own block, whether it stands above or below them.

Tests used:
[1] = biological target: human BTLA on cells (stably transfected 293c18 cells; human peripheral blood T and B cells) (human) (UniProt Q7Z6A9); experiment: flow cytometry (MFI) on gated CD8+ T cells of human PBMC, APC-labelled antibody [middle panel (Naive CD8+ T cells]
[2] = biological target: human BTLA on cells (stably transfected 293c18 cells; human peripheral blood T and B cells) (human) (UniProt Q7Z6A9); experiment: flow cytometry (MFI) on gated CD4+ T cells of human PBMC, APC-labelled antibody [left panel (Naive CD4+ T cells]
[3] = biological target: cynomolgus monkey BTLA on cells (stably transfected 293c18 clone 1G5; cynomolgus peripheral blood T and B cells) (cynomolgus monkey); experiment: flow cytometry dot plot, CD3 (PerCP Cy5.5) against BTLA (APC), lysed cynomolgus monkey whole blood, antibody at 33 nM
[4] = biological target: T1, purified recombinant BTLA-ECD (Example 19)
T1 sequence (Q7Z6A9 31-157, species assumed, looked up): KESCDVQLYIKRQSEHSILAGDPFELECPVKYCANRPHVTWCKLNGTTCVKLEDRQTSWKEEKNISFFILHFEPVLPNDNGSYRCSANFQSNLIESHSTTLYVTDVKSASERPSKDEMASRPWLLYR

[5] = biological target: T2, recombinant human BTLA monomer, hBTLA amino acids 31-155 followed by a 6-his tag (human, UniProt Q7Z6A9 31-155); experiment: hydrogen-deuterium exchange with recombinant human BTLA monomer
T2 construct: Antigen of the hydrogen-deuterium exchange experiments
T2 sequence: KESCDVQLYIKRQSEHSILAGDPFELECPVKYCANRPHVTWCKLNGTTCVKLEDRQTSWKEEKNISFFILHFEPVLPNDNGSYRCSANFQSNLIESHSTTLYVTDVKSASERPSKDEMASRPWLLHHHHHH
Procedure: Hydrogen-deuterium exchange mapping of the peptides on BTLA bound by the 6G3 and 10D8 antibodies disclosed herein was performed using recombinant human BTLA monomer. […] FIGS. 7A, 7B, and 7C show a ribbon model of the crystal structure of human BTLA extracellular domain (black) in complex with a space-filling model of the crystal structure of human HVEM extracellular binding domain (light gray) rendered in PyMOL from Protein Data Bank structure (Compaan et al., J. Biol Chem 280: 39553-39561 (2005)). FIG. 7A summarizes a hydrogen-deuterium exchange experiment using the 6G3 antibody (APE12839.05 (H Chain SEQ ID NO: 144, L Chain SEQ ID NO: 174)), FIG. 7B summarizes a hydrogen-deuterium exchange experiment using the 10D8 antibody (APE11482.06), and FIG. 7C summarizes a hydrogen-deuterium exchange experiment using a reference BTLA antagonist antibody (APE10693.17). For each experiment, the BTLA/antibody mixture or BTLA alone was deuterium labeled for 4, 10, or 60 minutes in order to see the exchange kinetics. After incubation, the BTLA protein was subjected to rapid enzymatic proteolysis at acidic pH and the incorporation of deuterium into resulting peptides quantified by liquid chromatography-mass spectrometry.

[6] = biological target: T3, cynomolgus monkey BTLA ECD-his (monomeric cynomolgus monkey BTLA-his) (cynomolgus monkey, UniProt A0A2K5W7M7 31-157); experiment: SPR (Biacore T200), antibody captured on anti-human IgG chip, monomeric BTLA-his flowed at 60, 20, 6.7 and 2.2 nM, 1:1 binding model, 25 C [lower left panel (Cyno BTLA]
T3 construct: extracellular domain; also called cynomolgus monkey BTLA extracellular domain
T3 sequence: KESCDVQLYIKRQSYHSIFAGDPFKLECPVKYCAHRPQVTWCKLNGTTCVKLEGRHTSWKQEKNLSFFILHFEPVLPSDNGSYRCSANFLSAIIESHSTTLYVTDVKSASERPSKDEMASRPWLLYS
Procedure: (§1) Surface plasmon resonance (SPR) analyses were carried out using a Biacore T200 (GE Healthcare Life Sciences). Kinetic constants were determined using a 1:1 binding model in the Biacore T200 Evaluation Software to calculate on- and off-rates (kₐ and kd, respectively), and dissociation constants as a measure of overall affinity (KD). Anti-human IgG (GE Healthcare Life Sciences) was immobilized on a CMS chip using EDC-activated amine coupling chemistry (420 seconds contact at a flow rate of 10 μl/min). Antibodies (APE10585.04 6G3 IgG1 and APE10840.05 6G3 IgG4), each at 0.5 μg/m1) were captured in a 60 second contact with the flow cell using a flow rate of 10 μl/min. Monomeric human BTLA-his or cynomolgus monkey BTLA-his at 60 nM, 20 nM, 6.7 nM and 2.2 nM concentrations was flowed over captured antibody (480 seconds association, 1800 seconds dissociation). Runs were at 25° C. and used buffer containing 10 mM HEPES, pH 7.6, 150 mM NaCl, 3 mM EDTA, 0.05% polysorbate 20 (HBS-EP+, pH 7.6; Teknova) for the mobile phase and all dilutions. At the end of each cycle, bound antigen was removed by regeneration with two successive exposures (60 seconds and 90 seconds) to 3 M MgCl2 (30 μl/min). Sensorgrams and binding constants corresponding to the experiment are shown in FIG. 1 (human BTLA) and FIG. 1 (cynomolgus monkey BTLA). Antibody capture levels in resonance units (RU) are listed at the right side of each panel.

[7] = biological target: T3, cynomolgus monkey BTLA ECD-his …; experiment: SPR, Biacore T200, antibody captured on anti-human IgG, monomeric cynomolgus monkey BTLA-his as analyte, 25 °C, 1:1 model; 6G3 IgG1 (APE10585.04) captured on the chip; cynomolgus BTLA-his analyte
Procedure: as §1, with “Antibody capture levels in resonance units (RU) are listed at the right side of each panel.” left out

[8] = biological target: T4, human BTLA ECD-his (monomeric human BTLA-his) (human, UniProt Q7Z6A9 31-157); experiment: SPR, Biacore T200, antibody captured on anti-human IgG, monomeric human BTLA-his as analyte, 25 °C, 1:1 model; 6G3 IgG1 (APE10585.04) captured on the chip; human BTLA-his analyte
T4 construct: extracellular domain; also called human BTLA extracellular domain
T4 sequence (looked up): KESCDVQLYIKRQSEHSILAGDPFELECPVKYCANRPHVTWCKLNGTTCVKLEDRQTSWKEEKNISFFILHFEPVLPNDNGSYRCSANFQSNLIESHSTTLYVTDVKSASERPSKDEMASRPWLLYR
Procedure: as §1, with “Antibody capture levels in resonance units (RU) are listed at the right side of each panel.” left out

[9] = biological target: T4, human BTLA ECD-his (monomeric human …); experiment: SPR (Biacore T200), antibody captured on anti-human IgG chip, monomeric BTLA-his flowed at 60, 20, 6.7 and 2.2 nM, 1:1 binding model, 25 C [upper left panel (Hu BTLA]
Procedure: as §1

EC50 (read off the curve) [1]: 3 nM
EC50 (read off the curve) [2]: 2 nM
Molecule: reference anti-BTLA antibody MIH26 (APC-labeled, BioLegend)

Q8-2 (percent CD3+ BTLA+ cells) [3]: 35.8%
Q8-4 (percent CD3- BTLA+ cells) [3]: 28%
Total BTLA (percent of gated cells BTLA-positive) [3]: 63.9%
Molecule: APC-Mouse Anti-Human CD272 (BTLA) reference antibody, clone J168-540 (BD Biosciences)

B1: purified recombinant Proteinase 3 (PR3) (protein)
chain: IVGGHEAQPHSRPYMASLQMRGNPGSHFCGGTLIHPSFVLTAAHCLRDIPQRLVNVVLGAHNVRTQEPTQQHFSVAQVFLNNYDAENKLNDVLLIQLSSPANLSASVATVQLPQQDQPVPHGTQCLAMGWGRVGAHDPPAQVLQELNVTVVTFFCRPHNICTFVPRRKAGICFGDSGGPLICDGIIQGIDSFVIWGCATRLFPDFFTRVALYVDWIRSTLR
proteolytic cleavage after co-incubation up to 60 minutes (gel lanes) [4]: soluble BLTA-ECD was cleaved into multiple smaller fragments

binding result [5]: binds
B2: 10D8 antibody (APE11482.06) (antibody, V domains shown)
VH: QVQLVQSGAEVKKPGASVKVSCKASGYTLTDYTIHWVRQAPGQRLEWMGWIYPGSGNTKYNDEFKVRVTITRDTSASTAYMELSSLRSEDTAVYYCARRNYYAMEYWGQGTTVTVSS
VL: DIQMTQSPSSLSASVGDRVTITCKASQNVFTNVAWFQQKPGKAPKPLIYSASYRYSGVPSRFSGSGSGTDFTLTISSLQPEDFATYYCQQYSTYPYTFGQGTKLEIKR

Kd [6]: 10.8 nM
koff [6]: 0.00295 s⁻¹
kon [6]: 272000 M⁻¹ s⁻¹
Kd [7]: ~11 nM
Kd [8]: ~5 nM
Kd [9]: 3.56 nM
koff [9]: 0.000245 s⁻¹
kon [9]: 68900 M⁻¹ s⁻¹
B3: 6G3 IgG1 anti-BTLA antibody (APE10585.04) (antibody, V domains shown)
VH: QVQLVQSGAEVKKPGSSVKVSCKASGYVFSTSWMNWVRQAPGQGLEWMGRIYPGDADTNYVGKFKGRVTITADKSTTTAYMELSSLRSEDTAVYFCAKSGTFNFGNYRWYFDVWGKGTTVTVSS
VL: AIQLTQSPSSLSASVGDRVTITCRVSENIYSHLAWYQQKPGKAPKLLIYAATNLALGVPSRFSGSGSGTDYTLTISSLQPEDFATYYCQLFWGPPLTFGGGTKVEIKR
notes: Same variable regions as 6G3 IgG4, in IgG1 format; also called APE10585.x; APE10585.04 6G3 IgG1
